According to US20050148504A1, “Cysteine protease inhibitor” (priority 2002, published 2005):

Legend:
papain [1] = molecular target: papain (UniProt P00784); assay: cell-based or functional assay
papain [2] = molecular target: T1, papain (Carica papaya, UniProt P00784); assay: cysteine protease inhibitory activity, Z-Phe-Arg-MCA fluorescence method (Barrett et al.), papain; type: biochemical; parameters: purchased Sigma Co., Ltd
T1 sequence (P00784 134-345): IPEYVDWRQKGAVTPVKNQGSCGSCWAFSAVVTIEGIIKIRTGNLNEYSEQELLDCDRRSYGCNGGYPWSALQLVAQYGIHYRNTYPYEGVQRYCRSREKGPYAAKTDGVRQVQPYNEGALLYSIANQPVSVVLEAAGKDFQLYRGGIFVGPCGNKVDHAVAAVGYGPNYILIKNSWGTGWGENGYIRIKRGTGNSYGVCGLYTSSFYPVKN
Description: Casein, a partial peptide of casein, or hydrolysate of casein which can be used for the present invention has inhibitory activity against cysteine proteases such as cathepsin B, L and papain. The cysteine protease inhibitory activity can be determined in accordance with the methods of Barrett et al (Methods in Enzymology, Vol. 80, pp. 535-561, 1981). For example, Z-Phe-Arg-MCA (Benzyloxycarbonyl-L-Phenylalanyl-L-Arginine4-Methyl-Coumaryl-7-Amide: final concentration of […]: manufactured by Peptide Institute, Inc.) is added as a substrate into a solution in which casein, a partial peptide and/or a hydrolysate of casein is dissolved in 0.1 M acetic acid buffer (pH 5.5), and then a cysteine protease (papain in the present Examples: manufactured by Sigma Co., Ltd.) solution (final concentration: 15 units/ml) is added and the whole solution is mixed to allow reaction at 37° C. for 10 minutes. After that, fluorescence intensity (excitation wavelength: 370 nm, emission wavelength: 460 nm) of AMC (7-Amino-4-Methyl-Coumarin) released from the digested substrate is measured with a fluorescence spectrometer (manufactured by Hitachi, Ltd.).
(§1) The inhibitory activity was measured with reference to the method by Barrett et al. (“Methods in Enzymology,” Vol. 80, p 535-561, 1981) as described below. Namely, Z-Phe-Arg-MCA (final concentration of […]: manufactured by Peptide Institute, Inc.) was added as a substrate to a solution containing bovine β-casein peptide mixture dissolved in a 0.1 M acetic acid buffer solution pH 5.5. Then, a cysteine protease (papain in the present test: manufactured by Sigma Co., Ltd.) solution (final concentration: 15 units/ml) was added, the whole solution was mixed and the reaction was carried out at 37° C. for 10 minutes. Subsequently, fluorescence intensity (excitation wavelength: 370 nm, emission wavelength: 460 nm) of AMC released from the digested substrate was measured with a fluorescence spectrometer (manufactured by Hitachi, Ltd.).
Z-Phe-Arg-MCA (final concentration of […]: manufactured by Peptide Institute, Inc.) was added as a substrate into a solution in which a test sample was dissolved in a 0.1 M acetic acid buffer (pH 5.5). Then, a papain solution (final concentration of 15 units/ml) as a cysteine protease solution was added and mixed, and the reaction was performed at 37° C. for 10 minutes. Subsequently, fluorescence intensity (excitation wavelength: 370 nm, emission wavelength: 460 nm) of AMC released from the digested substrate was measured with a fluorescence spectrometer (manufactured by Hitachi, Ltd.).

cathepsin L = cathepsin L (Homo sapiens, UniProt P07711); assay: cysteine protease inhibitory activity, Z-Phe-Arg-MCA fluorescence method, cathepsin L; type: biochemical; conditions: concentration of 10^−4 M
Sequence of cathepsin L (P07711 114-333, species assumed): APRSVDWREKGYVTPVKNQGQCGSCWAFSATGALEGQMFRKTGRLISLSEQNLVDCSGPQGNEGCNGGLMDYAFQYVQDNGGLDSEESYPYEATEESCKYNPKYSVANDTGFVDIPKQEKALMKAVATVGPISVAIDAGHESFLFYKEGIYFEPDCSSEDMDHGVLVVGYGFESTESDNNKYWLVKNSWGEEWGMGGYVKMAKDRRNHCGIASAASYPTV
Description: as §1
(§2) A spectrum of cysteine protease-inhibitory activity of a test sample was measured in the same way as that of measuring the cysteine protease-inhibitory activity described in the Test Example 3, using bovine β-casein as a test sample, and papain, cathepsin B and cathepsin L as cysteine proteases.

papain [3] = molecular target: T1, papain; assay: reverse zymography using papain (SDS-polyacrylamide gel containing gelatin); conditions: 12.5% SDS-polyacrylamide gel with 0.1% gelatin; papain 37° C. 10 hours; FIG. 1 lane 6
cathepsin B = cathepsin B (Homo sapiens, UniProt P07858); assay: cysteine protease inhibitory activity, Z-Phe-Arg-MCA fluorescence method, cathepsin B; type: biochemical; conditions: concentration of 10^−4 M
Description: as §1, §2

bovine α-casein
concentration at which papain activity is almost inhibited (papain [1]): 100 µM

bovine β-casein peptide: peptide from Leu of 142th residue to His of 160th residue of bovine β-casein (SEQ ID No. 2) (LTDVENLHLPLPLLQSWMH; sig_peptide (1)Oc(15) casein; listed as Bos taurus)
cysteine protease inhibitory activity (papain), in words (papain [2]; papain 15 units/ml, pH 5.5, 37° C. 10 minutes, concentration not given): having inhibitory activity

bovine κ-casein (from UniProt P02668 22-190)
concentration at which papain is completely inhibited (papain [1]): 10 µM

bovine κ-casein: bovine κ-casein used as a test sample
inhibition of papain, in words (papain [2]; concentration of 10^−5 M): completely inhibit

human β-casein peptide: synthesized peptide having amino acid numbers 133 to 151 of SEQ ID No. 1 (human β-casein) (LTDLENLHLPLPLLQPLMQ; sig_peptide (1)Oc(15) casein; listed as Homo Sapiens)
inhibition of papain, in words (papain [2]; concentration of 10^−4 M): completely inhibits | inhibition of protease activity of papain (papain [2]; concentration of 10^−5 M): 65%

B1: human β-casein: human β-casein purified by a conventional procedure, amino acid sequence of SEQ ID No. 1 (Swiss-Prot P05814) (protein, listed as Homo Sapiens)
chain: MKVLILACLVALALARETIESLSSSEESITEYKQKVEKVKHEDQQQGEDEHQDKIYPSFQPQPLIYPFVEPIPYGFLPQNILPLAQPAVVLPVPQPEIMEVPKAKDTVYTKGRVMPVLKSPTIPFFDPQIPKLTDLENLHLPLPLLQPLMQQVPQPIPQTLALPPQPLWSVPQPKVLPIPQQVVPYPQRAVPVQALLLNQELLLNPTHQIYPVTQPLAPVHNPISV
modifications: sig_peptide (1)Oc(15) casein
inhibition of papain, in words (papain [2]; concentration of 10^−5 M): almost completely inhibits

B2: bovine β-casein: β-casein derived from bovine, amino acid sequence of SEQ ID No. 2 (Swiss-Prot P02666) (protein, listed as Bos taurus)
chain: MKVLILACLVALALARELEELNVPGEIVESLSSSEESITRINKKIEKFQSEEQQQTEDELQDKIHPFAQTQSLVYPFPGPIPNSLPQNIPPLTQTPVVVPPFLQPEVMGVSKVKEAMAPKHKEMPFPKYPVEPFTESQSLTLTDVENLHLPLPLLQSWMHQPHQPLPPTVMFPPQSVLSLSQSKVLPVPQKAVPYPQRDMPIQAFLLYQEPVLGPVRGPFPIIV
modifications: sig_peptide (1)Oc(15) casein
inhibition of papain, in words (papain [2]; concentration of 10^−5 M): completely inhibits | inhibition of papain, in words (papain [2]; concentration of 10^−5 M, listed as β-casein): completely inhibit | inhibition of protease activity of cathepsin L, in words (cathepsin L): almost inhibits | band in reverse zymography using papain (papain [3]): positive band | inhibition of protease activity of cathepsin B, in words (cathepsin B): almost inhibits
